In patent US20170253660A1 one finds retention on cells after 10 washes (MFI as percent of the baseline after first wash) data, which are given here for one molecule.

In the assay the target is T1, B7-H3 on LAN-1 cells (human) (UniProt Q5ZPR3).
T1 sequence (looked up): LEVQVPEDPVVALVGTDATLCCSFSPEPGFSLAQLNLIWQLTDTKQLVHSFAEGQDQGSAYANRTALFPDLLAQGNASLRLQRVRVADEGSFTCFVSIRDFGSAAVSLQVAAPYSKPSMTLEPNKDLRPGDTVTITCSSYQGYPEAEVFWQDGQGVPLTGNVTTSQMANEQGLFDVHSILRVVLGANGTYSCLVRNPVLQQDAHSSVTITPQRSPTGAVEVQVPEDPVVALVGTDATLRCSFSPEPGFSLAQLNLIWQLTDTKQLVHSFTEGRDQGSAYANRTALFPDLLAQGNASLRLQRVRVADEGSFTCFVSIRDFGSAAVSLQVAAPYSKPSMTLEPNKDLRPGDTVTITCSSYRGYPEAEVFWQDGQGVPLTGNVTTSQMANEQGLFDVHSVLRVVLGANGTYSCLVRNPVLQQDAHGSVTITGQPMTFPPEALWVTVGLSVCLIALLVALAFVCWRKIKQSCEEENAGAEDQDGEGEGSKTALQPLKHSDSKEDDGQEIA
As to the kind of experiment: flow cytometry wash-off on LAN-1 cells, FITC-labeled goat anti-mouse second antibody. In general terms: A flow cytometer gives signals particle by particle.

B1: 8H9 (antibody, INN chains, looked up, mouse IgG1, V domains shown)
VH: QVQLQQSGAELVKPGASVKLSCKASGYTFTNYDINWVRQRPEQGLEWIGWIFPGDGSTQYNEKFKGKATLTTDTSSSTAYMQLSRLTSEDSAVYFCARQTTATWFAYWGQGTLVTVSA
VL: DIVMTQSPATLSVTPGDRVSLSCRASQSISDYLHWYQQKSHESPRLLIKYASQSISGIPSRFSGSGSGSDFTLSINSVEPEDVGVYYCQNGHSFPLTFGAGTKLELK
In turn, B1 yielded a retention on cells after 10 washes (MFI as percent of the baseline after first wash) of 80%.
